Assay results published in PMC11480506.

How the values were obtained:
[1] = molecular target: mCherry-IRE1α LD 312TLPL315-GSGS-10His (human) (UniProt O75460); test: mass photometry; protein tethered by C-terminal 10His to supported lipid bilayers (99 mol% POPC, 1 mol% Ni-NTA lipids); 100 nM protein; 25 mM HEPES pH 7.3, 150 mM NaCl, 250 µM TCEP
[2] = molecular target: mCherry-IRE1α LD 312TLPL315-GSGS-10His (human) (UniProt O75460); test: mass photometry; protein tethered by C-terminal 10His to supported lipid bilayers (99 mol% POPC, 1 mol% Ni-NTA lipids); 75 nM protein; 25 mM HEPES pH 7.3, 150 mM NaCl, 250 µM TCEP
[3] = molecular target: IRE1α LD 352LNYL355-GSGS mutant (human) (UniProt O75460); test: AUC; sedimentation velocity (AUC-SV), 25 µM protein
[4] = molecular target: IRE1α LD 312TLPL315-GSGS mutant (human) (UniProt O75460); test: as above
[5] = molecular target: mCherry-IRE1α LD-10His (human) (UniProt O75460); test: mass photometry; protein tethered by C-terminal 10His to supported lipid bilayers (99 mol% POPC, 1 mol% Ni-NTA lipids); 100 nM protein; 25 mM HEPES pH 7.3, 150 mM NaCl, 250 µM TCEP
[6] = molecular target: mCherry-IRE1α LD-10His (human) (UniProt O75460); test: mass photometry; protein tethered by C-terminal 10His to supported lipid bilayers (99 mol% POPC, 1 mol% Ni-NTA lipids); 75 nM protein; 25 mM HEPES pH 7.3, 150 mM NaCl, 250 µM TCEP
[7] = molecular target: mCherry-IRE1α LD 352LNYL355-GSGS-10His (human) (UniProt O75460); test: mass photometry; protein tethered by C-terminal 10His to supported lipid bilayers (99 mol% POPC, 1 mol% Ni-NTA lipids); 100 nM protein; 25 mM HEPES pH 7.3, 150 mM NaCl, 250 µM TCEP
[8] = molecular target: mCherry-IRE1α LD 352LNYL355-GSGS-10His (human) (UniProt O75460); test: mass photometry; protein tethered by C-terminal 10His to supported lipid bilayers (99 mol% POPC, 1 mol% Ni-NTA lipids); 75 nM protein; 25 mM HEPES pH 7.3, 150 mM NaCl, 250 µM TCEP
[9] = molecular target: human IRE1α lumenal domain (IRE1α LD, aa 24-443) (human) (UniProt O75460); test: fluorescence polarisation; fluorescence anisotropy of N-terminal fluorescein labeled peptide with IRE1α LD; n = 2 independent experiments

Chain of UniProt O75460 (O75460 24-443): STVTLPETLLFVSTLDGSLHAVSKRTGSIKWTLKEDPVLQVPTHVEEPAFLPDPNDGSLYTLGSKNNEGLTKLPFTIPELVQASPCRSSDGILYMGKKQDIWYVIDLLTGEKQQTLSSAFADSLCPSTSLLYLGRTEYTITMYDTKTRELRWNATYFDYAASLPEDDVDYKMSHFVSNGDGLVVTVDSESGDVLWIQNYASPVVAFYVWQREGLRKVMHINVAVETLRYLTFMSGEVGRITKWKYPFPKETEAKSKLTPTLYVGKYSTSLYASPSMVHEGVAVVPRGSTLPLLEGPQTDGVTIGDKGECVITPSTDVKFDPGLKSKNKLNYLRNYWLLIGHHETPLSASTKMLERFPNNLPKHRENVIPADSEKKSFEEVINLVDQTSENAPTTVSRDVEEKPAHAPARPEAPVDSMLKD

Work on “mCherry-IRE1α LD 312TLPL315-GSGS-10His (from UniProt O75460 24-443) (domain or fragment)” yielded a stoichiometry N [1] of 2 and a stoichiometry N [2] of 2.
“IRE1α LD 352LNYL355-GSGS mutant (from UniProt O75460 24-443) (domain or fragment)” gave a stoichiometry N [3] of 2.
For “IRE1α LD 312TLPL315-GSGS mutant (from UniProt O75460 24-443) (domain or fragment)”, the stoichiometry N [4] was 2.
Substance “mCherry-IRE1α LD-10His (from UniProt O75460 24-443) (domain or fragment)” has a stoichiometry N [5] of 2 and a stoichiometry N [6] of 2.
“mCherry-IRE1α LD 352LNYL355-GSGS-10His (from UniProt O75460 24-443) (domain or fragment)” gave a stoichiometry N [7] of 2 and a stoichiometry N [8] of 2.
“MPZ1N-2X, model unfolded polypeptide (two MPZ1N 12mers in tandem), N-terminal fluorescein labeled” was tested, and the Kd [9] was 2000 nM.
